Data set [1] concerns the target 3-hydroxybutyrate dehydrogenase from Citrobacter freundii (CF3HBD) (Citrobacter freundii). In words: crystal structure; hanging-drop vapor diffusion at 20 °C, protein with 5 mM NAD+, 3.2 M sodium acetate pH 6.5; space group P2_(1), four molecules in an asymmetric unit.
Data set [2] concerns the target T1, SM3HBD (Serratia marcescens, UniProt A0A2F0PAS1).
T1 construct: gene DMW51_14370
T1 sequence (A0A2F0PAS1 1-256): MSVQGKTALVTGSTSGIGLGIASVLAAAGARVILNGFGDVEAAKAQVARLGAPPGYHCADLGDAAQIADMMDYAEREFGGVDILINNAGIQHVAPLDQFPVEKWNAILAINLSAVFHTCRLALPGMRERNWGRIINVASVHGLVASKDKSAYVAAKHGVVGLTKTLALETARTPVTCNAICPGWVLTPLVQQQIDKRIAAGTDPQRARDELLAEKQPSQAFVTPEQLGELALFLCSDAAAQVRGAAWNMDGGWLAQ
Briefly: cyclization assay with purified enzyme, ε-caprolactam formed. The format is biochemical.

Data set [3] deals with T2, CF3HBD (Citrobacter freundii, UniProt A0A0D7LY80).
T2 construct: gene AI2602V1_2506; tetramer in the asymmetric unit (two subunits NAD+-free)
T2 sequence (A0A0D7LY80 1-256): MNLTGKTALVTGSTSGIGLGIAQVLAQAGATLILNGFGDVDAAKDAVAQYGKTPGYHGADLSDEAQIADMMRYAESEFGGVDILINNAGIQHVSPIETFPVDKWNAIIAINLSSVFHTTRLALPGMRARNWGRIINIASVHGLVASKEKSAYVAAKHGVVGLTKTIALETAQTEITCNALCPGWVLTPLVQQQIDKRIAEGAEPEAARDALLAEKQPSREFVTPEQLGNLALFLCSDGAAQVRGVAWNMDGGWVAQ
Briefly: X-ray crystal structure, […] Å. The format is binding. The settings on record: 5 mM NAD+, 3.2 M sodium acetate pH 6.5, 20 °C.

Substrate in data set [4]: NCCCCCC(=O)O
Briefly: LC-MS of caprolactam formed, Michaelis-Menten fit. The settings on record: 50 mM HEPES pH 7.5, 35 °C, 10 min, no cofactor or metal, cyclization to ε-caprolactam. The format is biochemical, Citrobacter freundii.

“3-hydroxybutyrate dehydrogenase from Citrobacter freundii (CF3HBD) (enzyme)”: the stoichiometry N (in general, a count of units in the complex or per binding partner) in data set [1] amounted to 4. Turning to `NCCCCCC(=O)O` [6-aminocaproic acid], the “cyclization assay with purified enzyme, ε-caprolactam formed” value in data set [2] was “both enzymes showed cyclization activity towards 6-ACA to produce ε-caprolactam”. In the case of `NC(=O)c1ccc[n+]([C@@H]2O[C@H](COP(=O)(O)OP(=O)(O)OC[C@H]3O[C@@H](n4cnc5c(N)ncnc54)[C@H](O)[C@@H]3O)[C@@H](O)[C@H]2O)c1` [NAD^+], the “X-ray crystal structure, 2.29 Å” value in data set [3] was “we determined the crystal structure of CF3HBD in complex with NAD^+”.

B1: CF3HBD (Citrobacter freundii) (protein)
chain: T2 sequence (A0A0D7LY80 1-256)
notes: tetramer in the asymmetric unit (two subunits NAD+-free)
As to B1, in data set [4], the Km – broadly, the substrate concentration at which the rate is half of its maximum – amounted to 3.3 ± 0.3 mM; the kcat – broadly, the maximal rate divided by the concentration of active sites – is 0.0012 ± 3.33e-05 s⁻¹; the kcat/Km (usually the turnover number divided by the Michaelis constant) stood at 0.363 ± 0.03 M⁻¹ s⁻¹.

For the origin of these results see paper PMC6265244, “A synthetic microbial biosensor for high-throughput screening of lactam biocatalysts” (Nature Communications, 2018).
